Data reported in doi:10.1101/2024.01.14.575554 (bioRxiv, 2024).

Biological target: T1, Alexa-488 tagged Hsp60α (Sulfolobus acidocaldarius, UniProt Q9V2T5 1-558, Alexa-488 label (site not stated))
T1 sequence (looked up): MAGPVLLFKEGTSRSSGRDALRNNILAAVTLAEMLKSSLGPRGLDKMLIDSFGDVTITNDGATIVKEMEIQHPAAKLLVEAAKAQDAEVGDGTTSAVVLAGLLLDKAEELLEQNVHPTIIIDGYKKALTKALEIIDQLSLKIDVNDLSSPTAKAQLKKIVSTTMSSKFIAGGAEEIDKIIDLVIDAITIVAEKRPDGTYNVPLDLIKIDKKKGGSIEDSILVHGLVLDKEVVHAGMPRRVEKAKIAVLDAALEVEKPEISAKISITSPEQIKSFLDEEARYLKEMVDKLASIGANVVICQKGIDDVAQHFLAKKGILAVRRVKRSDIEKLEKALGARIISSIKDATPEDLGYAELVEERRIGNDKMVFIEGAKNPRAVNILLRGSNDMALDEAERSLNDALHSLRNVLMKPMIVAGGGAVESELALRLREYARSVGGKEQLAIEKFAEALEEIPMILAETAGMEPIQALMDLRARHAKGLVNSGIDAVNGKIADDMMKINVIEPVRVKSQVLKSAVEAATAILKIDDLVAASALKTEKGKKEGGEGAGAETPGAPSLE
Test: FRET or BRET

B1: Alexa-532 tagged Hsp60β (natural protein, Sulfolobus acidocaldarius, UniProt Q9V2T4 1-553, looked up)
chain: MSATATVATTPEGIPVIILKEGSSRTYGKEALRINIAAVKAVEEALKTTYGPRGMDKMLVDSLGDITITNDGATILDKMDLQHPAAKLLVQIAKGQDEETADGTKTAVIFSGELVKKAEELLYKEIHPTIIVSGYKKAEEMAIKTIEEISTKVSVNDTEILRKVALTSLSSKAVAGAREHLADIVVKAITQVAELRGDKWYVDLDNVQIVKKHGGSINDTQIVYGIIVDKEVVHPGMPKRVENAKIALLDASLEVEKPELDAEIRINDPTQMKKFLDEEENILKEKVDKIAQTGANVVICQKGIDEVAQHYLAKKGILAVRRAKKSDLEKLARATGGRVVSNIDELTSQDLGYATLVEERKIGEDKMVFIEGAKNPKAVSILIRGGLERVVDETERALRDALGTVADVVRDGRAIAGGGAVETEIAKRLRKYAPQVGGKEQLAIEAYANALESLVMILIENGGFDPIELLVKLRSAHENETNKWHGINVYTGQIQDMWSLGVIEPAVVKMNAIKAATEASTLILRIDDLISAGKKSEGKTGEKKESEKGKEED
modifications: Alexa-532 label (site not stated)
B1 was tested, and the Kd was 167 ± 1.7 nM.
